Assay: Storage of hirudin in water, chromatographic analysis (Mono Q / ProPac)
Format: physicochemical
Conditions: FIG. 2
Description: MONO Q METHOD: The stability of hirudin can be analysed by FPLC ([…] protein liquid chromatography) using a Mono-Q column (10 μm particle size, 5.0×50 mm, purchased from Pharmacia). The method was developed by Ciba-Geigy, Basel. Solvent A is 50 mM HCOONH4 in H2 O pH 4.5, and solvent B is 50 mM HCOONH4 in H2 O , pH 3.5. The elution is performed at room temperature (22° C.) using a flow rate of 1.4 ml/min. The binary elution for the first 5 min is at constant flow of 20% B, followed by a linear gradient from 20% B to 75% B over 10 minutes, and 2 minutes at 100% B after which the column is equilibrated for 2 min at the starting conditions of 20% B.
PROPAC METHOD: A recently published method for hirudin analysis can also be used [Tuong, A., Maftouh, M., Ponthus, C., Whitechurch, O., Roitsch, C., and Picard, C. (1992) "Characterisation of the Deamidated Forms of Recombinant Hirudin" Biochemistry 31, 8291-8299]. In this method a ProPac PAl anion-exchange column (250×4 mm i.d.) from Dionex is used. Solvent A is 20 mM Tris-HCl, pH 7.0 and solvent B is 0.5M NaCL in A. Isocrastic elution for 5 min at 28% is followed by a linear gradient from 28%B to 54%B over 60 min at a flow rate of 1.3 ml/mim.
The two peaks which elute in the front of the main peak (FIG. 1) are referred to as Q4 and Q5 peaks, respectively. […] The exact nature of the products which produce those extra peaks is not known.

Substance: hirudin
- change of chromatogram on storage in water: increase of the Q4 and Q5 peaks with time
